# From US20200347130A1 (JIANGSU HENGRUI MEDICINE, published 2020)
# T1: Biotinylated CD96 antigen (human, UniProt P40200-2 22-503, limits assumed, biotinylated)
# T1 sequence (looked up): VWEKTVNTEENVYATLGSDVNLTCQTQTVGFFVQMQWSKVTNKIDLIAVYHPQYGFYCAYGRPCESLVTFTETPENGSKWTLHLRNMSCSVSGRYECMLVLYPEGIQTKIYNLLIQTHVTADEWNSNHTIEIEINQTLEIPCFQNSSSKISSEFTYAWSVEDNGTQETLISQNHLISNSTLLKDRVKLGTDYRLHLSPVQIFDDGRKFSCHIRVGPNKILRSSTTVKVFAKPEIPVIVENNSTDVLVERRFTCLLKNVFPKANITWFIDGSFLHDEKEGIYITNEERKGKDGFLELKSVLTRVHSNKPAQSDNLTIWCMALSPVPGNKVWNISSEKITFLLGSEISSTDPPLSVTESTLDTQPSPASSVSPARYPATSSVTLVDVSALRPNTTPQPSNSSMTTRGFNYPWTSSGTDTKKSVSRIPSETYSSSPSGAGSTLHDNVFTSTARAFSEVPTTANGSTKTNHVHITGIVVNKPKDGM
# T2: CD96 epitope peptide #3 IAVYHPQYGFYCAYGRPCES (47-66) (human)
# T2 construct: also called 3# peptides; #3 antigen fragment
# T2 peptide: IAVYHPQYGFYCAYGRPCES
# T3: CD96 epitope peptide #6 (92-111) (human)
# T3 peptide: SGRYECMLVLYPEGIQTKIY
# T4: CD96 epitope peptide #10 (149-170) (human)
# T4 peptide: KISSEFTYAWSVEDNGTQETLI
# T5: CD96 epitope peptide #8 (122-141) (human)
# T5 peptide: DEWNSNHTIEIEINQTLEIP
# T6: CD96 epitope peptide #21 (310-329) (human)
# T6 peptide: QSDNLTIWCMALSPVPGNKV
# T7: CD96 epitope peptide #15 (220-239) (human)
# T7 peptide: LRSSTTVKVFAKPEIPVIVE
# T8: CD96 epitope peptide #16 (235-254) (human)
# T8 peptide: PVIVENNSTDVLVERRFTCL
# Assays:
# [1] = target: T1, Biotinylated CD96 antigen; experiment: competition ELISA: antibody B pre-incubated with biotinylated CD96 antigen, added to a plate coated with antibody A, HRP-streptavidin, OD450; competitor: coated h1722-010
# Method: Competitive assays of different antibodies binding to CD96 protein were used to classify binding epitopes of the antibodies. The specific experimental methods are as follows:
# Antibody A was diluted to a concentration of 2 μg/ml with PBS buffer (Shanghai Yuanpei Biotechnology Co., Ltd. Cat No. B320), pH 7.4, added to a 96-well microtiter plate (Corning, Cat No. CLS3590-100EA) at a volume of 50 μl/well, and coated at 4° C. overnight. After discarding the liquid, 250 μl/well of 5% skim milk (BD skim milk, Cat No. 232100) blocking solution diluted with PBS was added, and the plate was incubated at 37° C. for 3 hours. After blocking, the blocking solution was discarded, and the plate was washed 5 times with PBST buffer (pH 7.4 PBS containing 0.05% tween-20) and stored for later use. Antibody B was diluted to 40 μg/ml and 8 μg/ml with 1% BSA, and Biotinylated CD96 antigen was simultaneously diluted to 4 μg/mL. Subsequently, antibody B and antigen were mixed in a 1:1 volume ratio, pre-incubated at 37° C. for 45 minutes, added into the enzyme plate coated with antibody A, thus incubating the plate in an incubator at 37° C. for 1.5 hours. […] The absorption value was read at 450 nm with a NOVOStar microplate reader, and the OD value was used to determine whether A and B CD96 antibodies compete with each other. […]
# [2] = target: T2, CD96 epitope peptide #3 …; experiment: peptide ELISA, peptide coated
# Method: (§1) The epitopes recognized by anti-CD96 antibody were detected by the assay of binding the antibody to different polypeptide fragments of CD96 protein. The fragments of different polypeptides of the CD96 antigen were coated on the microtiter plate. The signal density after the antibody was added was used to judge the binding activity of the antibody and the polypeptide. The specific experimental method is as follows:
# (§2) The polypeptides were diluted to a concentration of 20 μg/ml with PBS buffer (Shanghai Yuanpei Biotechnology Co., Ltd. Cat No. B320), pH 7.4, added to a 96-well microtiter plate (Corning, Cat No. CLS3590-100EA) at a volume of 50 μl/well, and coated at 4° C. overnight. After discarding the liquid, 250 μl/well of 5% skim milk (BD skim milk, Cat No. 232100) blocking solution diluted with PBS was added, and the plate was incubated in an incubator at 37° C. for 3 hours. After blocking, the blocking solution was discarded, and the plate was washed 5 times with PBST buffer (pH 7.4 PBS containing 0.05% tween-20). 50 μl/well of different concentrations of the antibodies to be tested (hybridoma purification antibody or humanized antibody) diluted with sample dilution was added, and the plate was incubated in an incubator at 37° C. for 2 hours. […] After washing the plate 5 times with PBST, 50 μl/well of TMB chromogenic substrate (KPL, Cat No. 52-00-03) was added, the plate was incubated at room temperature for 5-15 min, followed by adding 50 μl/well of 1M H₂SO₄ to stop the reaction. The absorption value was read at 450 nm with a microplate reader (Thermo Scientific MuLtiskan MK3), and the epitopes that CD96 antibody can recognize were analyzed.
# [3] = target: T3, CD96 epitope peptide #6 (92-111); experiment: peptide ELISA, peptide coated
# Method: as §1, §2
# [4] = target: T4, CD96 epitope peptide #10 (149-170); experiment: peptide ELISA, peptide coated
# Method: as §1, §2
# [5] = target: T5, CD96 epitope peptide #8 (122-141); experiment: peptide ELISA, peptide coated
# Method: as §1, §2
# [6] = target: T6, CD96 epitope peptide #21 (310-329); experiment: peptide ELISA, peptide coated
# Method: as §1, §2
# [7] = target: T7, CD96 epitope peptide #15 (220-239); experiment: peptide ELISA, peptide coated
# Method: as §1, §2
# [8] = target: T8, CD96 epitope peptide #16 (235-254); experiment: peptide ELISA, peptide coated
# Method: as §1, §2
binder,measurement,setting,value
"h1722-010 (antibody, V domains shown, Only variable regions are tied to this name; also called M722-010) VH: EVQLVQSGAEVKKPGSSVKVSCKASGGTFSDYWMHWVRQAPGQGLEWIGMLHPNSGTTSFNEKFKIRVTITADKSTSTAYMELSSLRSEDTAVYYCASDYSGPFAYWGQGTLVTVSS VL: DIQLTQSPSSLSASVGDRVTITCSASSSVNYIHWYQQKPGKAPKRWIFDTSKLASGVPSRFSGSGSGTDYTLTISSLQPEDFATYYCQQWRSNPLTFGQGTKLEIK",IC50 (read off the curve),[1],~0.5 nM
"ch1720 (antibody, human IgG4 S228P, kappa, V domains shown, also called chimeric antibody corresponding to m1720) VH: EFQLQQSGPELVKPGASVKISCKASAYSLTDYNMNWVKQSNGKSLEWIGVINPSYGISSYNQKFKGKATLTVDQSSSTAYMHLNSLTSEDSAVYYCARQLRLPGYFDVWGTGTTVTVSS VL: DIKMTQSPSSKNASLGERVTITCKASQDINSYLNWFQQKPGKSPKTLIYRASRLVDGVPSRFSGSGSGQDYSLTISSLEYEDMGIYYCLKYDEFPYTFGGGTKLEIKR",binding result,[2],binds
"ch1718 (antibody, human IgG4 S228P, kappa, V domains shown, also called chimeric antibody corresponding to m1718) VH: EFQLQQSGPELVKPGASVKISCKASAYSITDYNMNWVKQSNGKSLEWIGVINPSYGITDYNQNFKDKATLTVDQSSSTAYMQLNSLTSEDSAVYYCAIQLRLPGYFDVWGTGTTVIVSS VL: DIKMTQSPSSMYASLGERVTITCKASQDINNYLNWFQQKPGKSPKTLIYRANRLVDGVPSRFSGSGSGQDYSLTISSLEYEDMGIYYCLKYDEFPYTFGGGTKVEIKR",binding result,[3],binds
same,binding result,[4],binds
same,binding result,[5],binds
same,binding result,[6],binds
same,binding result,[7],binds
same,binding result,[8],binds
